Test results taken from patent publication US11230591.

Assays:
[1] = target: recombinant pentameric gH complex (Towne strain) (human cytomegalovirus, Towne strain) (UniProt P17176); test: BLI competition on His-pentamer; competitor (antibody 2): 2-18
[2] = target: recombinant pentameric gH complex (Towne strain) (human cytomegalovirus, Towne strain) (UniProt P17176); test: BLI competition on His-pentamer; competitor (antibody 2): 3-15
[3] = target: recombinant pentameric gH complex (Towne strain) (human cytomegalovirus, Towne strain) (UniProt P17176); test: BLI competition on His-pentamer; competitor (antibody 2): 124.4
CMV virions = test: virion ELISA
[4] = target: recombinant pentameric gH complex (Towne strain) (human cytomegalovirus, Towne strain) (UniProt P17176); test: BLI competition on His-pentamer; competitor (antibody 2): 1-32
[5] = target: recombinant pentameric gH complex (Towne strain) (human cytomegalovirus, Towne strain) (UniProt P17176); test: BLI competition on His-pentamer; competitor (antibody 2): 1-103
[6] = target: recombinant pentameric gH complex (Towne strain) (human cytomegalovirus, Towne strain) (UniProt P17176); test: BLI competition on His-pentamer; competitor (antibody 2): 70.7
[7] = target: recombinant pentameric gH complex (Towne strain) (human cytomegalovirus, Towne strain) (UniProt P17176); test: BLI competition on His-pentamer; competitor (antibody 2): 1-85
[8] = target: recombinant pentameric gH complex (Towne strain) (human cytomegalovirus, Towne strain) (UniProt P17176); test: BLI competition on His-pentamer; competitor (antibody 2): 3-7
[9] = target: recombinant pentameric gH complex (Towne strain) (human cytomegalovirus, Towne strain) (UniProt P17176); test: BLI competition on His-pentamer; competitor (antibody 2): 57.4
[10] = target: recombinant pentameric gH complex (Towne strain) (human cytomegalovirus, Towne strain) (UniProt P17176); test: BLI competition on His-pentamer; competitor (antibody 2): 324.4
[11] = target: pentameric gH complex on infectious CMV (neutralization assays) (human cytomegalovirus); test: cell-based or functional assay
[12] = target: recombinant pentameric gH complex (Towne strain) (human cytomegalovirus, Towne strain) (UniProt P17176); test: BLI competition on His-pentamer; competitor (antibody 2): 276.1
[13] = target: recombinant pentameric gH complex (Towne strain) (human cytomegalovirus, Towne strain) (UniProt P17176); test: BLI competition on His-pentamer; competitor (antibody 2): 1-150
[14] = target: recombinant pentameric gH complex (Towne strain) (human cytomegalovirus, Towne strain) (UniProt P17176); test: BLI competition on His-pentamer; competitor (antibody 2): 2-25
[15] = target: recombinant pentameric gH complex (Towne strain) (human cytomegalovirus, Towne strain) (UniProt P17176); test: BLI competition on His-pentamer; competitor (antibody 2): 270.7
[16] = target: recombinant pentameric gH complex (Towne strain) (human cytomegalovirus, Towne strain) (UniProt P17176); test: BLI competition on His-pentamer; competitor (antibody 2): 3-16
[17] = target: recombinant pentameric gH complex (Towne strain) (human cytomegalovirus, Towne strain) (UniProt P17176); test: BLI competition on His-pentamer; competitor (antibody 2): 316.2

Chain of recombinant pentameric gH complex (Towne strain) (human cytomegalovirus, Towne strain) (P17176 30-715, one chain of several): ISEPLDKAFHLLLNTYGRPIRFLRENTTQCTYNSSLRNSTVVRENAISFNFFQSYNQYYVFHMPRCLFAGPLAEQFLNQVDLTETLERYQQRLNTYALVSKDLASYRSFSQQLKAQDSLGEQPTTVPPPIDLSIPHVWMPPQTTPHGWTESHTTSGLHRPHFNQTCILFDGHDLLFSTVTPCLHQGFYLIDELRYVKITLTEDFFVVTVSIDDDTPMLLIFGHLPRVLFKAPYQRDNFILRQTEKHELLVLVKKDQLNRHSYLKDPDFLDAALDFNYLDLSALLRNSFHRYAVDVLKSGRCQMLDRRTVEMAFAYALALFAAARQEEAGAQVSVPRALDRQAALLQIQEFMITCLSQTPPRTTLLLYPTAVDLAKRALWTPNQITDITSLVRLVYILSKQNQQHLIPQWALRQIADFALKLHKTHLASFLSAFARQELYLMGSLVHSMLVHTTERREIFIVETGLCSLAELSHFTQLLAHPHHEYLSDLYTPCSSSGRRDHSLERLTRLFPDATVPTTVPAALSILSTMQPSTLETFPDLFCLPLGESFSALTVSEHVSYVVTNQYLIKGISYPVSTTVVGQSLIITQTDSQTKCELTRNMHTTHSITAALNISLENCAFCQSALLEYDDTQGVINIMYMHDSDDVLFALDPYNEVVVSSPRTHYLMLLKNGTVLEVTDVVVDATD

B1: 1-103 (antibody, V domains shown)
VH: QLQLQESGPGLVKPSETLSLTCSVSGDAISGSNYYWGWIRQPPGKGLQWIGSIYHTGSTFYNPSFSSRVTLSVDTSKNQFSLKLISVNAADTAVYYCARRIRGYSGTYDWGQGTLVTVSS
VL: DIQLTQSPSFLSASVGDRVTITCRASQDISSYVAWYQQKPGNAPKLLISSASTLPSGVPSRFSGSRSGTDFTLTISSLQPEDFATYYCQQLNNFGPGTTVDIK
B1 was tested, and the Pair-wise inhibition (%) [1] was -10%, the Pair-wise inhibition (%) [2] was -7% and the Pair-wise inhibition (%) [3] was -22%. It also gave an EC50 (CMV virions) of 0.2 µg/mL, a Pair-wise inhibition (%) [4] of -12% and a Pair-wise inhibition (%) [5] of 89%. For the same binder, the Pair-wise inhibition (%) [6] was -31%, the Pair-wise inhibition (%) [7] was 6% and the Pair-wise inhibition (%) [8] was -12%. The Pair-wise inhibition (%) [9] was -4%, the Pair-wise inhibition (%) [10] was -19% and the EC50 Neutralizing [11] was 4 ng/mL. It also gave an IC50 in ARPE-19 [11] of 0.88 ng/mL, a Pair-wise inhibition (%) [12] of -2% and a Pair-wise inhibition (%) [13] of -49%. It also gave a Pair-wise inhibition (%) [14] of -20%, a Pair-wise inhibition (%) [15] of -35% and a Pair-wise inhibition (%) [16] of -38%. For the same binder, the Pair-wise inhibition (%) [17] was -28%.
